Test results published in US20110039779A1 (published 2011).
Several values for one entry are separate records, joined by “and”; a condition that tells them apart may be missing. Equal entries are not always repeated. Where no end group is shown, it is not given here. [ ]: non-standard residue; d: D form. The star is where a group is joined. Biotin = O=C1N[C@H]2[C@H](CS[C@H]2CCCCC(=O)*)N1; AEEA = NCCOCCOCC(=O)O

These binders were tested against T1, IGF-1R on SW480 cells (UniProt P08069 31-1367, limits assumed) (assay: cell-based or functional assay).
T1 sequence (P08069 31-1367 limits assumed): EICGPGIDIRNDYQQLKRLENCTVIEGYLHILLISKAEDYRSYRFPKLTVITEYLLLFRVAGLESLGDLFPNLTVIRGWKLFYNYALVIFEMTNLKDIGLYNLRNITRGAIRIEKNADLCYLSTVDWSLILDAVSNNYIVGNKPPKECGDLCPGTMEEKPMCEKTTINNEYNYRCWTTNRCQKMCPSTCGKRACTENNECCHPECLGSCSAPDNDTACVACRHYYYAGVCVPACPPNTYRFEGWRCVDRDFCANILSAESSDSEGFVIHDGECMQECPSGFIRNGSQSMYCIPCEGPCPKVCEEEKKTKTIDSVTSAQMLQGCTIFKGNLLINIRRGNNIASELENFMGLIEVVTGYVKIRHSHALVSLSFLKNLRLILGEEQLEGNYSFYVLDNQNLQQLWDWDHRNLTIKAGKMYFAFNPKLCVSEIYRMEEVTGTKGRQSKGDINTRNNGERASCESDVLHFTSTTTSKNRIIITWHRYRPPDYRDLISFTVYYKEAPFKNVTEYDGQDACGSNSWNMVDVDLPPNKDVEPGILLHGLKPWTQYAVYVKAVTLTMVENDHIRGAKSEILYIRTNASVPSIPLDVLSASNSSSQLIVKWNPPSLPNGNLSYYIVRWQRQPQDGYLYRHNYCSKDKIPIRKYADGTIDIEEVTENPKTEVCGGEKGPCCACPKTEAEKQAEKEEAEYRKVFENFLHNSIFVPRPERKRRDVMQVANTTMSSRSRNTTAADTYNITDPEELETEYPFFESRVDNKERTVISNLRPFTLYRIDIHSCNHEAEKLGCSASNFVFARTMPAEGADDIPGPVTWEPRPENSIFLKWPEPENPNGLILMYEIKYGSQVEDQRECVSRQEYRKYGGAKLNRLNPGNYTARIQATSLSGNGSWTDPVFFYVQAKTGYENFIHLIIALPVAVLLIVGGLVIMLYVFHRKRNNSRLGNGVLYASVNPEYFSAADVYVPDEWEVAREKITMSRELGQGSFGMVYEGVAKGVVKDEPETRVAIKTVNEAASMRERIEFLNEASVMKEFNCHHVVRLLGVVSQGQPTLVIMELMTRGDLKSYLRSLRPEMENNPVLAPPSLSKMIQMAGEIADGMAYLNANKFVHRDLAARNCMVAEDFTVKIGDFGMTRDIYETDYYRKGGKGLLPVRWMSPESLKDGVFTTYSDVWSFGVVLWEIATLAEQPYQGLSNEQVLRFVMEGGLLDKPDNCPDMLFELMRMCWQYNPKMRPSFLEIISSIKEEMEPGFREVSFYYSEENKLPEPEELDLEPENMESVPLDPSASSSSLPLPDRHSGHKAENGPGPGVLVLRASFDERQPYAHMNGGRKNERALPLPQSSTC

Binder	IC50 in SW480 (M) in presence of IGF-1	IC50 in SW480 (M), peptide alone
SFYSCLESLVNGPAEKSRGQWDGCR [F249]	> 1e-05 M	> 1e-05 M
EGRVDDAFYEWFERQLGE [F213, listing 1 of 2 here]	2e-06 M	
SFYSCLESLVTGPAEKSRGQWEGCRK [F292]	1e-07 M	1e-06 M
RQWDCRGRPCGDAESFYEWFDQQRS [F264]	> 1e-05 M	> 1e-05 M
SFYSCLESLVNGPAEKSRGQWDGCRK [F250, listing 1 of 2 here]	2e-06 M and 1e-06 M	
ELQGFCELLATVTGVTGLGCLDYQPIE [F202]	> 1e-05 M	
VQDDCRGRPCGDADSFYEWFDQQAS [F263, listing 1 of 2 here]	> 1e-06 M	> 1e-06 M

Each binder was assayed against IGF-1R on MCF-7 cells (MCF-7S8, MCF7) (human, UniProt P08069 31-1367) (assay: cell-based or functional assay).
Sequence of IGF-1R on MCF-7 cells (MCF-7S8, MCF7) (P08069 31-1367): as the sequence (P08069 31-1367 limits assumed) above

Binder	IC50 in MCF-7S8, in presence of IGF-1
EGRVDDAFYEWFERQLGE [F213, listing 1 of 2 here]	2 µM
EISFRCQLFVLAGMHPCPVDVGGEGFE [F170]	2 µM
SFYSCLESLVTGPAEKSRGQWEGCRK [F292]	1 µM
SFYSCLESLVNGPAEKSRGQWDGCRK [F250, listing 1 of 2 here]	2 µM
QFYGCLLDLSLGVPSFGWRRRCITA [F138]	0.5 µM

Target: T1, IGF-1R on SW480 cells
Assay: cell-based or functional assay
Remark: another data set of the same source

Binder	IC50, IGF-1 (10 nM)-induced proliferation of SW480 cells, exp. 13262-015	IC50, IGF-1 (10 nM)-induced proliferation of SW480 cells, exp. 13262-025	IC50, IGF-1 (10 nM)-induced proliferation of SW480 cells, exp. 13262-027	IC50, IGF-1 (10 nM)-induced proliferation of SW480 cells, exp. 13717-019	IC50, IGF-1 (10 nM)-induced proliferation of SW480 cells, exp. 13717-027	IC50, IGF-1 (10 nM)-induced proliferation of SW480 cells, exp. 13262-014
IFYSCLASLLHGGPQRNTGPWERCRR [F141]	> 10 µM					
QFYGCLLDLSLGVPSFGWKKKCITA [F392]		> 10 µM	1 µM			
ESFYSCLASLVTGIPRSNSGTQVFCREE [F227]	> 10 µM					
DFYGCLLDLSLGVPSLGWRRRCIT [F428]				1 µM	1 µM	
SFYSCLESLVSGPAEKSHRRWEACR [F321]						> 10 µM
SFYSCLESLVKRPTERSRGQWVGCR [F320]						> 10 µM
DFYGCLLDLSLGVPSLGWRRRCITA [F429]				0.5 µM	1 µM	
VQDDCRGRPCGDADSFYEWFDQQAGYGSSSRRAPQT [F364]	> 10 µM					

The binders below were run against IGF-1R on L6 cells (assay: cell-based or functional assay).

Binder	IC50, down regulation of 3 nM IGF-1 stimulation to basal level, IGF-IR, L6 cells	IC50, down regulation of 3 nM IGF-1 stimulation to basal level, IRS-1, L6 cells	IC50, down regulation of 3 nM IGF-1 stimulation to basal level, MAPK42, L6 cells	IC50, down regulation of 3 nM IGF-1 stimulation to basal level, MAPK44, L6 cells	IC50, down regulation of 3 nM IGF-1 stimulation to basal level, PKB/Akt, L6 cells
SFYSCLESLVKRPTERSRGQWVGCR [F320]	2000 nM and > 1000 nM	> 2000 nM	1000 nM	1000 nM	
QFYGCLLDLSLGVPSFGWRRRCITA [F138]		300 nM	300 nM	300 nM and 100 nM	300 nM and 100 nM
DFYGCLLDLSLGVPSLGWRRRCITA [F429]	50 nM	40 nM	300 nM	100 nM	100 nM

Each binder was assayed against T2, human insulin-like growth factor-1 receptor (HIGF-1R) (human, UniProt P08069 31-1367) (assay: 125I-IGF-1 displacement, PEG-assay).
T2 construct: Detergent-solubilised receptor purified on WGA-agarose; also called HIGFIR
Experimental: IGF-1R affinity studies were generally performed as follows. […] The day before harvest cells were moved to serum free conditions and before harvest the cells were rinsed with and ice cold PBS solution. The cells were solubilized in cold lysis buffer (4 ml lysis buffer/1×10⁸ cells); vortexed vigorously to lysis in lysis buffer (50 mM Hepes (pH 8.0); 150 mM NaCl; 1% Triton X-100; 2 mM EDTA; 10 μg/mlaprotinin; 0.5 mM PEFABLOC (Roche)); and the lysate centrifuged at 4° C., 20000 rpm, for 15 minutes. […] In some cases, human insulin receptor (HIR) affinity for select test peptides was similarly measured.

T2 sequence (P08069 31-1367 limits assumed): as the sequence (P08069 31-1367 limits assumed) above

Binder	Kd
EWLEQERAWIWCEIQGSGCRAE [F216]	10 µM
KLHNLMFYYGLQRLVWGAGLG [F159]	5 µM
ESFYSCLASLVAGTPWPKGGSWERCREE [F230]	20 µM
DDDKGSLDESFYDWFERQLGTFYSCLASLLTGTPQPNRGPWERCR [F110]	1 µM
EEGVDEVRAWLWCQISGLGCESEEX (C-terminal Lig (lysine with a 2-aminohydroxyacetyl group on the epsilon amino group)) [F191]	54 µM
XGSLDESFYDWFERQLGKK (N-terminal Lig (lysine with a 2-aminohydroxyacetyl group on the epsilon amino group)) [F119]	1 µM
ESFYSCLESLVNGPAEKSRGQWDGCRE [F215]	82 µM
GVRAMSFYDALVSVLGLGPSG [F157]	2 µM
TFYSCLASLLTGPREQNRGAWERCRR [F142]	0.04 µM
EGRVDDAFYEWFERQLGE [F213, listing 2 of 2 here]	0.8 µM
EDHRLCGTDEYLMQDLFVRGLCRLIWE [F164]	4 µM
ETFYKCLASVLTGSTQTKRRPWEGCREE [F229]	37 µM
VEGRGLFYDLLRQLLARRQNG [F158]	0.9 µM
SFYSCLESLVNGPAEKSRGQWDGCRK [F250, listing 2 of 2 here]	42 µM
ELSFACLLSQLSGVVLPDCLLGEDE [F201]	43 µM
FFYRCLSRLLGGQLGSRLGLSCIGD [F139]	8 µM

What follows are binders tested against T2, human insulin-like growth factor-1 … (assay: 125I-IGF-1 displacement, SPA-assay).
Excerpt: In certain cases, a scintillation proximity assay (SPA assay) was used to determine IGF-1R affinity.

Binder	Kd
Ac-SFYSCLESLVTGPKERSRGQWEGCRR (cysteine pairing not given here) [F306]	0.1 µM
{Biotin-AEEA}-SFYSCLESLVQGPAEKSRGQWEGCRK (cysteine pairing not given here) [F414]	65 µM
VQDDCRGRPCGDADSFYEWFDQGYGSSSRRAPQT [F404]	62 µM
Ac-SFYSCLESLVQGPAEKSRGQWEGCRK (cysteine pairing not given here, Second row labelled F365) [F365 (row r332, SEQ ID NO 200)]	0.26 µM
EGRVDDAFYEWFERQLGEELCQSWGVRIGWLAGLCPE [F410]	37 µM
GVGGWRYGSFPSFSSQTRS [F431]	0.0017 µM
QFYGCLLDLSLGVPSFGWRRRCITA (N-terminal Pox (8-amino-3,6-dioxaoctanoic acid)) [F406]	14 µM
F254 (cysteine pairing not given here, 111 conjugated by POX) peptide: ESFYSCLESLVAGPAEKSRGQWEGCR[AEEA][AEEA]GYSWLRDVLMEKQAQLKREGSVGRQE	82 µM
ESYGDCRDRPCGDAPNFYDWFVQQASE [F270]	7 µM
VQDDCRGRPCGDADSFYEWFDQQAS [F263, listing 2 of 2 here]	2.5 µM
SQDQVGASLGSAISGRGGLSNFYSCLTSLATDTTRPSRRPWERCR [F397]	28 µM
XEESFYSCLESLVNGGAERSDGQWEGCREE (N-terminal Lig (lysine with a 2-aminohydroxyacetyl group on the epsilon amino group)) [F194]	55 µM
SFYSCLESLVNGPAEKFRGRRDGCR [F380]	46 µM
RQFYGCLLDLSLGVPSFGWRRRCITAR [F407]	69 µM
